Test: soluble on expression in E. coli; label from the status in PepcDB or PDB records

Sequence	soluble on expression in E. coli
MSLSPALSAPKPLRFPANPAPTALKQFALTLQSESYRYRTPMKFGGRVVEEVTVLTAQCTATNQAGQVADGDQIGIGSMTMGVAWAWPDASVADGTKLEVVLELASRMAAQVNEASGTLTGHPMEICLQLASQREDLVAAVAAGHDLTAPIPELAILLAASPIEAALFDAHGKAAGQSSYSLLSAEHLPPDLGEMTGDDRYAGLRLDQFISSSPVATLPLYHLVGALDPLTQDDLAEPVGDGLPETLGEWITRNELTHLKIKLNGDDADWDFRRVRDINTVANETTDRGSSTGKPWWFSLDFNERCEDEAYVLGLLDRLESECPEAFERIQYIEQPTHRDLKRPGAVTMHQAAARIPVVIDESLTGLESLHLAVSQGYSGIALKACKGHAEALLLGAIAVHENLFLCVQDLTCVGASLLHSASLSAHIPGVAAVESNGRQYCPEGNAEWMACFGPMFEVRGGSVPTSCLDGPGLGYEGHHHHHH	soluble
MHLDRQSLEKAKHLIQSGLIDTIEVGTIKGLQEIHRFLFEGLYEFAGKIRDKNIAKGNFRFANCLYLDLILPRIESMPQNNFNQIVEKYVEMNIAHPFLEGNGRATRIWLDLLLKKELKKIVLWDRIDKAAYLSAMERSPVNDLEIKTLLKKHLSSNTNDPLTLIKGITQSYYYEGLLEHHHHHH	not soluble
AIFGGDGFKDWIGEFSLFKELNEATEMFGKEDEEGTAATETEKADESTDGGMVKHDTNKAESLKKDKLSKEQREKLMEMEKKRREDMMKQVDELAEKLNEKISRYLIAVKSNNLEEFTRKLDQEIEDLKLESFGLELLYLLARVYKTKANNFIMSKKTYGISKIFTGTRDNARSVKSAYNLLSTGLEAQKAMEKMSEVNTDELDQYERAKFESTMAGKALGVMWAMSKFELERKLKDVCNKILNDKKVPSKERIAKAKAMLFIAHKFASARRSPEEAEEARVFEELILGEQEKEHKKHTVAR	not soluble
MENPDSAFLLFRNAPRLPLATMHTPLCGDSHQPDFAFRKPARDALLRPWNGRNHRCGLQDGREICQGQLPAHQKSYWSDCAALPRLFRAYGGAVVRGFLIVGNKAFTQPFSLNDLPGAGRMDVLCRCTSQALFISHGIRRDVEVYLLLLGPPSPPKSILIKGDEVRRMSPDERNVAGHIKKALAVECGKSWKKVHSGVYVSRKGLEELIEELSEKYSIIYLKEDGVDISNAQLPPNPLFVIGDHEGLTEEQEKVVERYAALKLSLSPLSLLAEQCVVIAHHHLDRLQF	not soluble
MDIDYTVGEVELSYKPKFKNIYKVVSSEDAYKYLLPTYKEGTICYKEYFKVLFLNQASQVLGYTLISEGGITDTTVDVRVILQAALLTNSVAIILAHNHPSGSMKPSRQDMEITKQVKEAARLMRITVTDHLILTDAGYYSFADEGEL	not soluble
MGDNENGDNLNNHQDSGSGSHHDAAPQQQQNNMSHQQQPQQQQHNEHNKQQQQQRDDVCRDFLKNICNRGSRCKFYHPSEAPPISDHDYNFCIDYQNRGCQRDNCRFVHAPRDEVERYKTTRELTLILARAIAAVGHGDTIGGIPICKEFQTGRCARGVNRCRYWHVNVDLERDRRNRGLPPSNDFGPGGGGGGMGGGGGSGGSGGGSGRFPPPPPPYGGGGRRRPYDDYDSDPIKRGRYGSDDRLMELEKRNAELSKEVDSLRRELQREHDRYEDLYALFRQQSGGAPAPPKAAAAASAVNDYYGTWGQKAPGW	soluble
MSYPSMSSFSTNVPDSENSSRSSVDGYNLKDTTSEKIKQFRENNKRKTSNSSSEEEPETEEGDPSRKLSSKSAEDKFVGRGIDAPRGRIANIRRESSCSVDSEAAHERLTKASQQVSTGFDDIALDSERSPGTSAEFRRRAPSFNTVIGEPISVVTNAFIPHSCSPSPTRQQADLIKQCYSPSTQQMVRPNISYSPSPRESPAQSPTRHAHKLKFQRAESPICRQPIKRKLTVTTLAETDIKRLFVPRSNTSPLVTDKTFPYPQNVGQLFESASTSSEFSSFSVPHSPGPLRAMTPLSSVSVGDQEENSPSVKDAEEKTTDNDEEMQDVEMSDNGTEVDDDLIRAATEAPLPDDDDQNDFAY	not soluble
MTGYACNHPNIYQSCNCQSFCQPYTHPHEMYYHHGYGCNGHCLDHQESMCEEDDECGMKKRKKHRKKNKKKKNKKKFRFSDEEDDEEKVAHHKKKPIEEDDDEFPLPPNSEEVAEASKSSKKEEDWEDDDKWERKFVSQTTTPAPRQAASGGGLGGLGLGNGGLFGISSGVGVGIPGVGPIGVSSGLGIGK	not soluble
MNRIKSTLTALLLAGSFQASAADQTILNSSYDIARELFVAYNPVFAEHWQQKTGKTVEIKQSHAGSSAQARSILQGLAADVVTFNQVTDVQILHDKGKLIPANWQTLLPNASSPYYSTTAFLVRKGNPKNIQDWSDLVRDDVKSVFPNPKTSGNARYTYLAALGFAQKQFGQDNQVQQDEFLKKFLANVAVFDTGGRGATTSFVERGIGDVLITFESEVNNIRQQYGADDYQVVVPKTSILAEFPVAVVEKVAKRNGTYDVATEYVSYLYSEPAQRLLAEFNYRVHDAKVQAEFAERFPAVELLTVEGIAGGWEQAMQTQFANGAKLDQLLRR	not soluble
MAYRDQPLGELALSIPRASALFRKYDMDYCCGGKQTLARAAARKELDVEVIEAELAKLAEQPIEKDWRSAPLAEIIDHIIVRYHDRHREQLPELILQATKVERVHADKPSVPKGLTKYLTMLHEELSSHMMKEEQILFPMIKQGMGSQAMGPISVMESEHDEAGELLEVIKHTTNNVTPPPEACTTWKAMYNGINELIDDLMDHISLENNVLFPRALAGE	not soluble
MVKQVGNTEIKENHRASCHCGAVVLELYLPNGIEKPRRCDCSICRRKGAIVGSVPLANIKILKGESELKLYQFNTGTAKHYFCSNCGIYTHHQRRSDPTEYGYNIGCLEGVNPYELGAIEVMDGVNHPADRKKILEHHHHHH	not soluble
MGSDKIHHHHHHQTIDETAIIARAQAIATRINEFLATRERNLLAKILALGGVQQAEIFEIQVKARLHPADVERVLAVLNHPAITVTKTSERTQYDTYFIFANGERIRIREDHRTDPGARPQPKYTLTLMAEARRFDHPKAMMLSRARYTAPADHTVRFYREYFQPDRIEELEKQRRRWRILYRDHDFAINLDTLIGQADRGPFLEIKSRTWSRRDAERRAELISELLELIGISDDALVLQEYVELVA	not soluble
MSALLPIINRLILQSPDSRSELAAFAGKTLTLNIAGLKLAGRITEDGLLSAGNGFADTEITFRNSAVQKILQGGEPGAGDIGLEGDLILGIAVLSLLGSLRSRASDELARIFGTQADIGSRAADIGHGIKQIGRNIAEQIGGFSRESESANIGNEALADCLDEISRLRDGVERLNERLDRLERDIWID	not soluble
YGNMTEDHVMHLLQNADPLKVYPPLKGSFPENLRHLKNTMETIDWKVFESWMHHWLLFEMSRHSLEQKPTDAPPK	soluble
MDLTVPVEYSRAGNTTHSGNVHAIQDDEKFSYGTAGFRFKSEKLPFIVFRCAYVASLRARQLNSAIGVMITASHNPSCDNGVKLVDPSGDMLNEQWEIYATEVVNATDAELPAAVRALEKQISVGKTQLSRVVCGMDTRCSGPCLMNAARAGAALFNVQFDDIGVVSTPMLHYAVKAFNEPKFAEPTHDGYYSAIADSFKKLYEITEEPKDSRYQPKVIVDCANGVGAPRFRNLLERIPSSLLEVEFRNESEELNQGCGADFVKISQKLPANFSPTAAEPKCASFDGDADRLMYFRAKASENSESNDAELFDGDKIAVLIVTYIREQLKDYENSTPMERLRLGIVQTAYANGSSTRYIREKLGIEPIIVPTGVKHLHEAASEFDIGIYFEANGHGTVVFSEIFDRIIRRTPTESLPLRRLALFSRVINETVGDAFADLLAVEAVLRHYGWSMDDWAEKLYRDVPNVQIKVPVIDRSIFKTTNAEQTLVKPVGIQKMIDTDVAKYNNSRAFIRPSGTENIVRVYAEADTVENTLQLGKSLEQVVLNLCNSN	not soluble
MAHHHHHHMLPAGLTLNTLTPLAQIPVELQRLARCAINAHRNAYCPYSKFAVGAALLHKDLKITAGCNYENCTLKGCCAELCAIVKGNSEGRRTATAVAVYGCSKAPDVMNLPPPDTVTPPCGFCRQSLVEVADLSNNYEDFLVVLVTLDKERVKLVKLCDIIPLKFGPSNIGMDLSQLAKDVELGNEDEKK	not soluble

Source: the DeepSol protein solubility set
